Results from patent publication US20250243286A1 (SIXPEAKS BIO, published 2025).
Residue numbers refer to the chain shown, from its start.

T1: human ActRIIB (human, UniProt Q13705 19-137, limits assumed)
T1 construct: antigen in MSD-SET; also called ACVR2B; ActR2B
T1 sequence: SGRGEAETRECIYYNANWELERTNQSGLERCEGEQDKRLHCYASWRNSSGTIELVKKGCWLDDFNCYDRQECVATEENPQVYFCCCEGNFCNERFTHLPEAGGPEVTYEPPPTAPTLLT

B1: Antibody Fasnetsküchla (antibody, V domains shown)
VH: QVQLVQSGAEVKKPGASVKVSCKASGYTFTSSYINWVRQAPGQGLEWMGTINAVSGSTSYAQKFQGRVTMTRDTSISTAYMELSRLRSDDTAVYYCARGGWFDYWGQGTLVTVSS
VL: QSALTQPASVSGSPGQSITISCTGTSSDVGSANYVNWYQQHPGKAPKPMIYGVSRRPSGVSNRFSGSKSGNTASLTISGLQAEDEADYYCGTFAGGKYYGVFGGGTKLTVL
notes: full-length IgG
B2: Antibody Rippla (antibody, V domains shown)
VH: B1 VH with K12R, A53P
VL: B1 VL with A32Y, Y34R, P48L, R55K, P57E, K97R
notes: full-length IgG; also called Ripp1a
B3: Antibody Biiramooscht (antibody, V domains shown)
VH: B1 VH with A53P
VL: B1 VL with A32Y, P48L, R55K, P57E, K97A
notes: full-length IgG
B4: Duuranad Fab (Fab, V domains shown)
VH: B1 VH
VL: B1 VL with A32F, P48L, Y51R, R55K, P57E, K97A
notes: Fab
B5: Wurschdsalat Fab (Fab, V domains shown)
VH: B1 VH with T74E
VL: B1 VL with A32Y, P48L, R55K, P57E
notes: Fab
B6: Antibody Riaba (antibody, V domains shown)
VH: B1 VH
VL: B1 VL with A32Y, P48L, R55K, P57D
notes: full-length IgG
B7: Hefaknöpfla Fab (Fab, V domains shown)
VH: B1 VH
VL: B1 VL with A32K, P48L, R55K, P57E
notes: Fab
B8: Antibody Bäratatza (antibody, V domains shown)
VH: B1 VH with G99S
VL: B1 VL with A32Y, P48L, R55K, R56Q, P57Q, K97S
notes: full-length IgG
B9: Ofaschlupfer Fab (Fab, V domains shown)
VH: B1 VH with A16S, M70I, R72A, I76T, R85S, D89E
VL: B1 VL with A8R, I18V, A32K, P48L, R55K, P57E, S61P, N62D
notes: Fab
B10: Antibody Bäradreck (antibody, V domains shown)
VH: B1 VH with A16S, A53P, M70I, R72A, I76T, R85S, D89E
VL: B1 VL with A8R, I18V, A32Y, P48L, R55K, S61P, N62D, K97S
notes: full-length IgG
B11: Bäradreck Fab (Fab, V domains shown)
VH: B1 VH with A16S, A53P, M70I, R72A, I76T, R85S, D89E
VL: B1 VL with A8R, I18V, A32Y, P48L, R55K, S61P, N62D, K97S
notes: Fab
B12: Bebballesgmias Fab (Fab, V domains shown)
VH: B1 VH with A16S, T28K, A53P, M70I, R72A, I76T, R85S, D89E
VL: B1 VL with A8R, I18V, A32Y, P48L, R55K, S58R, S61P, N62D, K97S
notes: Fab
B13: Bimagrumab (antibody, V domains shown)
VH: B1 VH with A53P
VL: B1 VL with A32Y, P48L, R55K, K97S
B14: Riaba Fab (Fab, V domains shown)
VH: B1 VH
VL: B1 VL with A32Y, P48L, R55K, P57D
notes: Fab

Each binder was assayed against T1, human ActRIIB (assay: MSD-SET).

Kd [nM]	Binder
0.008	B1
0.005	B2
0.005	B3

Each binder was assayed against T2, human ActRIIA (human, UniProt P27037 20-135, limits assumed) (assay: MSD-SET).
T2 construct: antigen in MSD-SET; also called ACVR2A; ActR2A
T2 sequence (P27037 20-135 limits assumed): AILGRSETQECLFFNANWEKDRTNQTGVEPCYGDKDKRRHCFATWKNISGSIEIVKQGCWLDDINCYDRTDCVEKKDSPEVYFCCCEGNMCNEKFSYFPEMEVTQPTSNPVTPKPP

Kd [nM]	Binder
0.029	B1
0.042	B2
0.028	B3
0.047	B4
0.125	B5
0.014	B6
0.091	B7

Target: T1, human ActRIIB
Assay: MSD-SET
Remark: another data set of the same source

Kd [nM]	Binder
0.008	B1
0.005	B8
0.005	B2
0.005	B3

Target: T2, human ActRIIA
Assay: MSD-SET
Remark: another data set of the same source

Kd [nM]	Binder
0.029	B1
0.023	B8
0.041	B2
0.028	B3
0.014	B6

Target: T1, human ActRIIB
Assay: MSD-SET
Remark: another data set of the same source

Kd [nM]	Binder
0.0033	B9
0.0638	B10
0.0014	B11

Target: T2, human ActRIIA
Assay: MSD-SET
Remark: another data set of the same source

Kd [nM]	Binder
0.112	B10
0.655	B11
0.285	B12

Each binder was assayed against T3, ActRIIA and ActRIIB (on TGFB/SMAD SBE Reporter HEK293 cells) (human) (assay: cell-based or functional assay).

IC50, Myostatin SMAD RGA [nM]	Binder
0.292	B13

Target: T3, ActRIIA and ActRIIB (on TGFB/SMAD SBE …)
Assay: cell-based or functional assay
Remark: another data set of the same source

IC50, Activin SMAD RGA [nM]	IC50, Myostatin SMAD RGA [nM]	IC50 fold difference (Fab:IgG), Activin SMAD RGA [fold]	IC50 fold difference (Fab:IgG), Myostatin SMAD RGA [fold]	Binder
0.5	–	–	–	B13
0.43	0.48	–	–	B1
0.09	0.15	–	–	B2
0.21	0.27	–	–	B3
6.19	7.85	20.5	20.2	B4
9.9	13.4	33.8	40.7	B5
27.9	64.6	196	199	B14
0.14	0.33	–	–	B6
4.06	3.7	31.5	14.2	B7

Target: T2, human ActRIIA
Assay: MSD-SET
Remark: another data set of the same source

Fold Difference to bimagrumab [fold]	Kd [nM]	Binder
49.5	0.023	B8
10	0.014	B6

Each binder was assayed against T1, human ActRIIB (assay: MSD-SET, preliminary).

Kd [nM]	Binder
0.0253	B9
0.0638	B10
0.0563	B11
0.0251	B12

These binders were tested against T2, human ActRIIA (assay: MSD-SET, preliminary).

Kd [nM]	Binder
0.112	B10
0.655	B11
0.285	B12

Target: T1, human ActRIIB
Assay: MSD-SET
Remark: another data set of the same source

Kd [nM]	Binder
0.002	B9

Each binder was assayed against Pig ActRIIA (pig, UniProt F1S0H6 20-135) (assay: MSD-SET).

Kd [nM]	Binder
0.01	B9

What follows are binders tested against mouse ActRIIA (mouse, UniProt P27038 20-135, limits assumed) (assay: MSD-SET).
mouse ActRIIA, sequence (P27038 20-135 limits assumed): as the sequence (P27037 20-135 limits assumed) above, with K20R, V73I counted along it

Kd [nM]	Binder
0.018	B9

Each binder was assayed against T3, ActRIIA and ActRIIB (on TGFB/SMAD SBE …) (assay: not given).

IC50 (read off the curve); Myostatin-stimulated SMAD reporter gene assay [nM]	Binder
0.4	B13
0.7	B1
0.2	B2

These binders were tested against T1, human ActRIIB (assay: MSD-SET; human ActRIIB; full-length IgG (Table 4B)).

Kd [nM]	Binder
0.004	B6

Target: T3, ActRIIA and ActRIIB (on TGFB/SMAD SBE …)
Assay: cell-based or functional assay
Remark: another data set of the same source

IC50, Activin SMAD RGA [nM]	IC95, Activin SMAD RGA [nM]	IC99, Activin SMAD RGA [nM]	Binder
0.32	19.6	206	B13

Each binder was assayed against T1, human ActRIIB (assay: MSD-SET; Fab, not IgG).

Kd [nM]	Binder
0.36	B4
0.823	B5
1.57	B14
0.228	B7

Target: T3, ActRIIA and ActRIIB (on TGFB/SMAD SBE …)
Assay: cell-based or functional assay
Remark: another data set of the same source

IC50, Myostatin SMAD RGA [nM]	IC50, myostatin inhibition (SMAD RGA) [nM]	IC50 [nM] (assay not given)	IC90, Activin SMAD RGA [nM]	IC90, Myostatin SMAD RGA [nM]	IC90 [nM] (assay not given)	IC95, Activin SMAD RGA [nM]	IC95, Myostatin SMAD RGA [nM]	IC99, Activin SMAD RGA [nM]	IC99, Myostatin SMAD RGA [nM]	Binder
0.56	0.292	0.517	9.38	13.5	8.07	37.9	55.2	829	2680	B13
0.513	–	–	3.82	4.63	–	–	–	–	–	B1
0.0537	–	–	2.14	0.491	–	–	–	–	–	B8
0.213	–	0.0209	1.58	9.65	1.27	–	–	–	–	B2
0.222	–	0.086	1.58	2.78	1.16	–	–	–	–	B3
0.255	0.255	–	4.99	4.05	–	–	–	–	–	B10
0.263	–	–	2.14	2.18	–	–	–	–	–	B6

Same assay, conditions: not given

IC50, Activin SMAD RGA [nM]	IC50 fold difference to bimagrumab (assay not given) [fold]	IC90 fold difference to bimagrumab (assay not given) [fold]	Binder
0.347	–	–	B1
0.138	–	–	B8
0.0582	25.6	6.33	B2
0.161	6.02	6.98	B3
0.257	–	–	B10
0.134	–	–	B6

Target: T2, human ActRIIA
Assay: MSD-SET
Remark: another data set of the same source

Fold Difference to bimagrumab [fold]	Kd [nM]	Binder
4	0.041	B2
6.4	0.028	B3

Each binder was assayed against T1, human ActRIIB (assay: MSD-SET, Fab KD over IgG KD).

Fold difference (Fab:IgG) [fold]	Binder
369	B14

Target: T3, ActRIIA and ActRIIB (on TGFB/SMAD SBE …)
Assay: cell-based or functional assay
Remark: another data set of the same source

IC50 [nM] (assay not given)	IC90 [nM] (assay not given)	IC50 fold difference to bimagrumab (assay not given) [fold]	IC90 fold difference to bimagrumab (assay not given) [fold]	Binder
0.294	6.57	–	–	B13
0.105	2.77	2.8	2.4	B8
0.0371	1.6	7.96	4.11	B6

Target: T3, ActRIIA and ActRIIB (on TGFB/SMAD SBE …)
Assay: not given
Remark: another data set of the same source

IC50 (read off the curve); Activin-stimulated SMAD reporter gene assay [nM]	Binder
0.3	B13
0.3	B1
0.2	B2
